# Data: patent US20220380471A1 (US Dept. of Health and Human Services, published 2022)
# T1: monkey B7H3-His (monkey)
# T1 chain: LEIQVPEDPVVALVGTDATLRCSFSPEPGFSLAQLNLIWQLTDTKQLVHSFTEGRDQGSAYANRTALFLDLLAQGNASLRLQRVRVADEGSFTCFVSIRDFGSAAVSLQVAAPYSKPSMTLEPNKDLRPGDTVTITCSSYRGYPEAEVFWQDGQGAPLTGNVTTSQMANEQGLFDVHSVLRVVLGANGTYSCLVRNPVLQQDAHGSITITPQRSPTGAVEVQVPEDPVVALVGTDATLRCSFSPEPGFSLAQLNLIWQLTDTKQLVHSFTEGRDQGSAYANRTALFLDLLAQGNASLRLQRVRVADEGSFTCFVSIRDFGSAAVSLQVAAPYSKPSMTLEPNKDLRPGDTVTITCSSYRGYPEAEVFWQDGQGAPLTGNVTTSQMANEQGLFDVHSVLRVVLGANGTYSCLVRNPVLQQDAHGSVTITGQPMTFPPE
# T2: rat B7H3-His (rat, UniProt Q7TPB4 29-244, limits assumed)
# T2 construct: not shown: His tag
# T2 sequence (looked up): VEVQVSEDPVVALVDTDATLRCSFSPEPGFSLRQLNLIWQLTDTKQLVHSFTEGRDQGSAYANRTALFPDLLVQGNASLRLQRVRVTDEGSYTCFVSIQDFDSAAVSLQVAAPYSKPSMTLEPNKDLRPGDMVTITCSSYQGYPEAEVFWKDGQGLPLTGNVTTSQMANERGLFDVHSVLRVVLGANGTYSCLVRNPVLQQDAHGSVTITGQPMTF
# T3: human B7H3 (human, UniProt Q5ZPR3 29-466, limits assumed)
# T3 construct: also called human B7H3 protein
# T3 sequence (looked up): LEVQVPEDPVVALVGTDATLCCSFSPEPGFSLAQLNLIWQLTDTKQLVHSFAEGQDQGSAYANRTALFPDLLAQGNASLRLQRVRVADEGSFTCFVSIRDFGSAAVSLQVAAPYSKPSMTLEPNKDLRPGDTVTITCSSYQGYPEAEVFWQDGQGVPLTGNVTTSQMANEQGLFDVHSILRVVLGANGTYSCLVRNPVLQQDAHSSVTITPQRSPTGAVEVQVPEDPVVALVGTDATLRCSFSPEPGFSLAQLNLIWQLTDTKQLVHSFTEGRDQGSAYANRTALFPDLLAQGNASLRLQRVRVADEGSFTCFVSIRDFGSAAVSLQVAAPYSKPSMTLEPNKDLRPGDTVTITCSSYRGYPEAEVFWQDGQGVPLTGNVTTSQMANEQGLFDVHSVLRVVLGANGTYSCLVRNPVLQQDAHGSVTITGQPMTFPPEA
# T4: recombinant human B7H3-Fc protein (human, UniProt Q5ZPR3 29-466, limits assumed)
# T4 construct: 154 kDa non-reduced, 77 kDa reduced; also called hB7H3-Fc; not shown: Fc part
# T4 sequence (looked up): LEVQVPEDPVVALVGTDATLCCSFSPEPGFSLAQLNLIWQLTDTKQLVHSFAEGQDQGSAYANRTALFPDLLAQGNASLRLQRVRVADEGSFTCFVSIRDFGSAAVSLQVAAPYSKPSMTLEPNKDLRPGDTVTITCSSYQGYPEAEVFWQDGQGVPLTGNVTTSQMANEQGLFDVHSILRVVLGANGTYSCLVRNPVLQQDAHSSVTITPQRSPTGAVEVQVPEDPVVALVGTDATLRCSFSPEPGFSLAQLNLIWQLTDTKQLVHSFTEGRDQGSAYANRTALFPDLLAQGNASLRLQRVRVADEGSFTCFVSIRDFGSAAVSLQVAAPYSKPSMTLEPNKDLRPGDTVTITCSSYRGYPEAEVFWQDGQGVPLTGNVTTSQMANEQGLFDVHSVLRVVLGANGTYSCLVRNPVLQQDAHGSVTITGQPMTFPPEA
# T5: hB7H3-His (human, UniProt Q5ZPR3 29-461, limits assumed)
# T5 construct: not shown: His tag
# T5 sequence (looked up): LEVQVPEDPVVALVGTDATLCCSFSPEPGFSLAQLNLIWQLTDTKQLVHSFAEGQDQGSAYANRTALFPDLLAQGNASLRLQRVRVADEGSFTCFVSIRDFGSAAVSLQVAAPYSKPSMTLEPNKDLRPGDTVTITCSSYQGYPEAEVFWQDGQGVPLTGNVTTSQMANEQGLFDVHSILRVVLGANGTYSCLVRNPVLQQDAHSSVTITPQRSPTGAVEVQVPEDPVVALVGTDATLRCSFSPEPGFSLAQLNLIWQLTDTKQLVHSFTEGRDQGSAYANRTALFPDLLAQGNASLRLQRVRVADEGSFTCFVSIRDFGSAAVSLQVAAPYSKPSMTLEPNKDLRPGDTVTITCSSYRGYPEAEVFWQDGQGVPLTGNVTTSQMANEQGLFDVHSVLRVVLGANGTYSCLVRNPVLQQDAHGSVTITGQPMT
# T6: B7H3 (CD276) on MC38-CD276+ cells
# T6 construct: whole, on cells; MC38-CD276KO cells served as the negative control; also called MC38-B7H3+
# T6 sequence (Q5ZPR3 1-534, species assumed, looked up): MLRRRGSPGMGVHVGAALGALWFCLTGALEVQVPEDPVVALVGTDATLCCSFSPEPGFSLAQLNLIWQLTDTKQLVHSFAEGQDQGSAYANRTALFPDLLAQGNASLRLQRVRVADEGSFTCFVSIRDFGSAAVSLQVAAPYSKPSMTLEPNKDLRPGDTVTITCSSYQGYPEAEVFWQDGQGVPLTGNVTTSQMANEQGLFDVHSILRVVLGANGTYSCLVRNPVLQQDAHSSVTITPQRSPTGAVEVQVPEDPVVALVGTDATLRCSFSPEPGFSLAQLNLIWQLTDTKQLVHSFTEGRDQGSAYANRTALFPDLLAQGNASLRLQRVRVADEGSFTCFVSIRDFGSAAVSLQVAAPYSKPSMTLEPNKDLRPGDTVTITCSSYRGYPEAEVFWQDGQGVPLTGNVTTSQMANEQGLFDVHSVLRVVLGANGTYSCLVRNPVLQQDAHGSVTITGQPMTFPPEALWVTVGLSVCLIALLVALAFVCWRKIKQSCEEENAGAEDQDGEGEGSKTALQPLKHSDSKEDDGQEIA
# Columns and labels:
# monkey B7H3-His = target: T1, monkey B7H3-His; test: phage ELISA, cross-species
# Summary of the method: (§1)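 Camel VHH phage were panned on recombinant B7H3-Fc protein for 3 rounds, using libraries from eight individual camels. Binding of the selected phage to immobilised antigens (human and other-species B7H3 or control proteins) was measured by phage ELISA and recorded as the ELISA signal.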
# rat B7H3-His = target: T2, rat B7H3-His; test: phage ELISA, cross-species
# Summary of the method: as §1
# human B7H3 [1] = target: T3, human B7H3; test: phage ELISA, cross-species
# Summary of the method: as §1
# Non-relevant antigen = test: phage ELISA, cross-species
# Summary of the method: as §1
# human B7H3 [2] = target: T3, human B7H3; test: ELISA; row Human; well 2 of 3
# Summary of the method: (§2)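 The values are ELISA signals for binding of purified camel VHH nanobodies to immobilised recombinant B7H3 fusion proteins and to non-B7H3 comparison proteins. The nanobodies came from phage panning on recombinant B7H3-Fc.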
# [3] = target: T4, recombinant human B7H3-Fc protein; test: ELISA; row B7H3-Fc; well 3 of 3
# Summary of the method: as §2
# PD-L1 = test: ELISA; row PDL1-Fc; well 2 of 3
# Summary of the method: as §2
# hB7H3-His = target: T5, hB7H3-His; test: ELISA; row B7H3-his; well 2 of 3
# Summary of the method: as §2
# Irrelevant antigen = target: T7, Irrelevant antigen; test: ELISA; row Irrelevant antigen; well 3 of 3
# T7 construct: negative control
# Summary of the method: as §2
# [4] = target: T6, B7H3 (CD276) on MC38-CD276+ cells; test: flow cytometry on MC38-CD276+ cells, VHH at 10 ug/ml
# [5] = target: T6, B7H3 (CD276) on MC38-CD276+ cells; test: flow cytometry on MC38-CD276+ cells, VHH at 50 ug/ml
# Sequence of PD-L1 (Q9NZQ7 whole entry): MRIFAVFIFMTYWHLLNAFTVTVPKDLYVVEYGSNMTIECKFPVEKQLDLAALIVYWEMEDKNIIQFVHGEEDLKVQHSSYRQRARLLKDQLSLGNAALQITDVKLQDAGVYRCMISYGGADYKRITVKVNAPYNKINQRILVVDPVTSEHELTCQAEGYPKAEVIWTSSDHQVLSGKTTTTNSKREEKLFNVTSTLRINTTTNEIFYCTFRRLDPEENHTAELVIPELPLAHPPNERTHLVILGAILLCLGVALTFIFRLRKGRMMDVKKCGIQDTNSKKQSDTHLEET
ELISA signal (monkey B7H3-His),ELISA signal (rat B7H3-His),ELISA signal (human B7H3 [1]),ELISA signal (Non-relevant antigen),ELISA reading (name not given) (human B7H3 [2]),ELISA reading (name not given) [3],ELISA reading (name not given) (PD-L1),ELISA reading (name not given) (hB7H3-His),ELISA reading (name not given) (Irrelevant antigen),Positive rates [4],Positive rates [5],Binder
2.43,2.44,2.67,0.0659,0.147,1.87,0.0633,0.0686,0.114,4.68%,26.5%,"RWG8 (VHH, Camel VHH; tag not described; also called camel antibody RWG8) VHH: DVQLVESGGGLVQPGGSLRLSCAASGFTFSRYWMGWFRQAPGKGVEWVSTINSGGGSTYYADSVKGRFTISRDNAKNTLYLQLNNLKTEDTAMYYCAKEQWRTGSRGQGTQVTVSS"
0.19,0.292,1.72,0.14,–,–,–,–,–,85.8%,91.5%,"RWG4 (VHH, Camel VHH; tag not described; also called camel antibody RWG4) VHH: QVQLVQSGGGLVQPGGSLRLSCAASGFTFSVYWFYWVRQAPRQGLEWVSTIASNGSTYYSDSVKGRFTISRDNAKNTVYLQMNSLKPEDTAVYYCVSDPDYYSDYERAYKFWAQGTQVTVSS"
1.54,–,2.5,0.0764,0.979,1.95,0.0627,0.0879,0.102,98.3%,98.8%,"RWC4 (VHH, Camel VHH; tag not described; also called camel antibody RWC4) VHH: EVQLVESGGGSVQAGGSLRLSCVASEDSTSAMCMGWFRQAPGKEREGVACINPTGEVTWYGDSVKGRFTISRDTVKKIVYLQMNSLKPEDTAMYYCAARVTYGGDWSTDTDYEYWGQGTQVTVSS"
2.31,2.07,2.74,0.0597,0.21,0.952,0.0685,0.0595,0.0853,4.16%,12%,"RWB12 (VHH, Camel VHH; tag not described; also called camel antibody RWB12) VHH: QVQLVESGGGSVQVGGSLRLSCAASGFTYNSYSVGWFRQAPGKEREGVAAINSGGSSTYYAASVKGRFTISRDNAKNTVYLQMNSLKPEDTAMYYCAARSPSPLTFQTRTLREDSYNYWGQGTQVTVSS"
